In patent US20250114463A1, “LIVER-TARGETED DRUG AND USE THEREOF” (HANMI PHARM. CO., LTD., priority 2021, published 2025):
Bridges are numbered along the chain shown (N, C = ends). Where no end group is shown, it is not given here. [ ]: non-standard residue; d: D form. The star is where a group is joined. Acetyl(2-(4-imidazolyl)) = O=C(Cc1c[nH]cn1)*; Aib = CC(C)(N)C(=O)O

T1: human GIP receptor (human, UniProt P48546 22-466)
T1 sequence (looked up): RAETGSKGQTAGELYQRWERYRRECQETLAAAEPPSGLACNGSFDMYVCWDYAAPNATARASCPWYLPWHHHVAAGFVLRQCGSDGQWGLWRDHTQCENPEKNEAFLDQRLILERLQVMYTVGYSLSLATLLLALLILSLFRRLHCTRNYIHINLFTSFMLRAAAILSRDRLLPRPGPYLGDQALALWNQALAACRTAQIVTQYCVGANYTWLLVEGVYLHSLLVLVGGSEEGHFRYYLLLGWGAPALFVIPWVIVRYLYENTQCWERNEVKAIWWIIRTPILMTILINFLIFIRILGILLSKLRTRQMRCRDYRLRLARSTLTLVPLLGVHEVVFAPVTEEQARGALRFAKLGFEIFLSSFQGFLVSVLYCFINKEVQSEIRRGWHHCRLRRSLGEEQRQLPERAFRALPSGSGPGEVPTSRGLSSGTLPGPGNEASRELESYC


Experiments:
Test in all cases: cell-based or functional assay
[1] = biological target: human GLP-1 receptor (human, UniProt P43220 24-463)
[2] = biological target: T1, human GIP receptor
[3] = biological target: human GCG receptor (human, UniProt P47871 26-477)
Chain of human GCG receptor (P47871 26-477): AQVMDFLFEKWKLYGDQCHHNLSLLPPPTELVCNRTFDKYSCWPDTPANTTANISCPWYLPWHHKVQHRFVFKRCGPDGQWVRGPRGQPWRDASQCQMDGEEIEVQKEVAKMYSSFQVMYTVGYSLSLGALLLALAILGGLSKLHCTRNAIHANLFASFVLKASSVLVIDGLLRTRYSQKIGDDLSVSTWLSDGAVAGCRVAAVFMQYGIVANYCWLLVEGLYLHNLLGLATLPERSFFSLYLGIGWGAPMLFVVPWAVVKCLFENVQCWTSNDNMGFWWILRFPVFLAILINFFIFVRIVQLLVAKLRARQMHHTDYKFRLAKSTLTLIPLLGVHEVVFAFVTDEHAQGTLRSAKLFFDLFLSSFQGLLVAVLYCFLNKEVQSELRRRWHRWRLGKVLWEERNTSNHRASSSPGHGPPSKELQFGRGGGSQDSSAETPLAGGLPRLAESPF

Binder | in vitro Activity Compared to Native Peptide (%), vs GLP-1 [1] [%] | in vitro Activity Compared to Native Peptide (%), vs GIP [2] [%] | in vitro Activity Compared to Native Peptide (%), vs Glucagon [3] [%]
[Acetyl(2-(4-imidazolyl))][Aib]EGTFTSDYSIAMDEIHQKDFVNWLLAQC (bridge 16-20; not fully specified (C-terminus)) [triple agonist of SEQ ID NO: 83] | 47.3 | 0.4 | 1.3
Y[Aib]QGTFTSDYSKYLDEKAAKDFVQWLLDHHPSSGQPPPSC-NH2 (bridge 16-20) [triple agonist of SEQ ID NO: 77] | 38.7 | 35.5 | 12.2
[Acetyl(2-(4-imidazolyl))][Aib]QGTFTSDYSIAMDEIHQKDFVNWLLNTC (bridge 16-20; not fully specified (C-terminus)) [triple agonist of SEQ ID NO: 87] | 0.9 | < 0.1 | < 0.1
Y[Aib]QGTFTSDYSKYLDERACKDFVQWLLDHHPSSGQPPPS (bridge 16-20; not fully specified (C-terminus)) [triple agonist of SEQ ID NO: 71] | 90.1 | 94.7 | 12.7
Y[Aib]QGTFTSDYSKCLDEKAAKEFVQWLLDHHPSSGQPPPS (bridge 16-20; not fully specified (C-terminus)) [triple agonist of SEQ ID NO: 68] | 27.9 | 107 | 8.8
[Acetyl(2-(4-imidazolyl))][Aib]QGTFTSDYSKYLDEKRQKEFVQWLLNTKC (bridge 16-20; not fully specified (C-terminus)) [triple agonist of SEQ ID NO: 88] | 9.6 | < 0.1 | 0.3
Y[Aib]QGTFTSDYSKYLDEKAAKEFVQWLLDHHPSSGQPPPSC (bridge 16-20; not fully specified (C-terminus)) [triple agonist of SEQ ID NO: 75] | 35.1 | 18 | 8.5
H[Aib]EGTFTSDYSIAMDEIHQKDFVDWLLAEKC (bridge 16-20; not fully specified (C-terminus)) [triple agonist of SEQ ID NO: 80] | 8.1 | 0.1 | 0
[Acetyl(2-(4-imidazolyl))][Aib]QGTFTSDYSKYLDECRAKEFVQWLLDHHPSSGQPPPS (bridge 16-20; not fully specified (C-terminus)) [triple agonist of SEQ ID NO: 73] | 22.6 | 3 | 5.4
H[Aib]QGTFTSDVSKYLDGQAAQEFVAWLLAGC (not fully specified (C-terminus)) [triple agonist of SEQ ID NO: 9] | 32.1 | < 0.1 | 0.13
H[Aib]QGTFTSDVSKYLDGQAAQEFVAWLLKGC (not fully specified (C-terminus)) [triple agonist of SEQ ID NO: 8] | 14.2 | < 0.1 | 0.1
H[Aib]EGTFTSDYSIAMDEIHQKDFVNWLLAQKC (bridge 16-20; not fully specified (C-terminus)) [triple agonist of SEQ ID NO: 79] | 41.5 | 1.4 | 4.9
[Acetyl(2-(4-imidazolyl))][Aib]QGTFTSDYSKYLDEKRQKEFVQWLLNTC (bridge 16-20; not fully specified (C-terminus)) [triple agonist of SEQ ID NO: 81] | 7.8 | < 0.1 | 0.3
[Acetyl(2-(4-imidazolyl))][Aib]EGTFTSDYSIAMDEIHQKDFVNWLLAQKC (bridge 16-20; not fully specified (C-terminus)) [triple agonist of SEQ ID NO: 90] | 7.4 | < 0.1 | < 0.1
H[Aib]QGTFTSDYSKYLDEKRQKEFVQWLLDTKC (bridge 16-20; not fully specified (C-terminus)) [triple agonist of SEQ ID NO: 78] | 51 | 0.12 | 14
[Acetyl(2-(4-imidazolyl))][Aib]QGTFTSDYSIAMDEIHQKDFVNWLLAQC (bridge 16-20; not fully specified (C-terminus)) [triple agonist of SEQ ID NO: 85] | 4.3 | 0.3 | < 0.1
[Acetyl(2-(4-imidazolyl))][Aib]EGTFTSDYSIAMDEIHQKDFVDWLLAEC (bridge 16-20; not fully specified (C-terminus)) [triple agonist of SEQ ID NO: 84] | 4.2 | < 0.1 | < 0.1
Y[Aib]QGTFTSDYSKCLDERAAKEFVQWLLDHHPSSGQPPPS (bridge 16-20; not fully specified (C-terminus)) [triple agonist of SEQ ID NO: 69] | 24.3 | 62.8 | 9.6
Y[Aib]QGTFTSDCSKYLDERAAKDFVQWLLDHHPSSGQPPPS (bridge 16-20; not fully specified (C-terminus)) [triple agonist of SEQ ID NO: 72] | 11.5 | 1.6 | 1
[Acetyl(2-(4-imidazolyl))][Aib]QGTFTSDYSKYLDEKRQKEFVQWLLDTC (bridge 16-20; not fully specified (C-terminus)) [triple agonist of SEQ ID NO: 82] | 9.5 | < 0.1 | 1.1
[Acetyl(2-(4-imidazolyl))][Aib]QGTFTSDYSKCLDEKRAKEFVQWLLDHHPSSGQPPPS (bridge 16-20; not fully specified (C-terminus)) [triple agonist of SEQ ID NO: 74] | 12.9 | 1 | 0.9
[Acetyl(2-(4-imidazolyl))][Aib]QGTFTSDYSKYLDEKRQKEFVNWLLAQC (bridge 16-20; not fully specified (C-terminus)) [triple agonist of SEQ ID NO: 86] | 28.4 | 0.2 | 0.4
Y[Aib]QGTFTSDYSKYLDEKRAKDFVQWLLDHHPSSGQPPPSC (bridge 16-20; not fully specified (C-terminus)) [triple agonist of SEQ ID NO: 76] | 10.3 | 11.7 | 47.6
[Acetyl(2-(4-imidazolyl))][Aib]QGTFTSDYSKYLDEKRQKEFVQWLLDTKC (bridge 16-20; not fully specified (C-terminus)) [triple agonist of SEQ ID NO: 89] | 7.1 | < 0.1 | 0.7
Y[Aib]QGTFTSDYSKCLDEKRAKDFVQWLLDHHPSSGQPPPS (bridge 16-20; not fully specified (C-terminus)) [triple agonist of SEQ ID NO: 70] | 15.1 | 64.4 | 71.3
